Source: the supplement of paper PMC11136658

Tested on: peptide library, one residue held at a place counted from the Y acceptor
Test: relative phosphorylation of the sub-library (ratio to the mean residue at this position); higher = residue favoured
Method in brief: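 Purified recombinant kinases were incubated for 90 min in 384-well plates with biotinylated Tyr-centred peptide library mixtures, each fixing one residue at one position from −5 to +5, plus 50 μM ATP with γ-32P-ATP. Peptides were captured on streptavidin membranes, rinsed and quantified by phosphorimaging and ImageQuant. Intensities were normalized per position by the sum of the 18 (or 16, Ser/Thr-free library) randomized residues and multiplied by that number. Values give phosphorylation relative to the mean randomized residue.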

Chain of EPHA7, construct: aa579-end, human (Q15375 579-998, looked up): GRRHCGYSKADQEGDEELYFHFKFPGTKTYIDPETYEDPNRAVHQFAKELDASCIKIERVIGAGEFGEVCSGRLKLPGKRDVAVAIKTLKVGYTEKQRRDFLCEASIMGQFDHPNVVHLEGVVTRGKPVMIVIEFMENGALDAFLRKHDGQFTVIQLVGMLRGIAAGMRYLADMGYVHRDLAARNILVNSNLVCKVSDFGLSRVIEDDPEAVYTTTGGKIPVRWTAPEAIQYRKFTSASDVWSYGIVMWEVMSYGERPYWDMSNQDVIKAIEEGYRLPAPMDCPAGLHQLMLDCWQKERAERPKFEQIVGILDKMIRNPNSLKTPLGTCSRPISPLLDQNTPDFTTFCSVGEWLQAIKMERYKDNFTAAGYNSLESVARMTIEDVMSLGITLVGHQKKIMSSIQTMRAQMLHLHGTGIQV
Chain of EPHA3, construct: aa571-end, human (P29320 571-983, looked up): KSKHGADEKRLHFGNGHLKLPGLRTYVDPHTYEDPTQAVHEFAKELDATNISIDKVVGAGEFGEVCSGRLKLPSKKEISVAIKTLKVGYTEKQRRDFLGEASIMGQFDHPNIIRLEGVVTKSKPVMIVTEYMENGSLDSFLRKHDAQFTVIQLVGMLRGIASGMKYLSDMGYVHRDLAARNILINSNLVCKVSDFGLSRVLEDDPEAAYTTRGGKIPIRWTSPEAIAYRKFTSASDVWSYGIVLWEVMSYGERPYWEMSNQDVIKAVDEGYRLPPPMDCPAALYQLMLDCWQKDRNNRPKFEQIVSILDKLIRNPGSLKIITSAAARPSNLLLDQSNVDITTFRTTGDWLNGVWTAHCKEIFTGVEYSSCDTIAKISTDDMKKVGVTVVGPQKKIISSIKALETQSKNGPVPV
Chain of EPHA6, construct: aa683-end, human (Q9UF33 683-1036, looked up): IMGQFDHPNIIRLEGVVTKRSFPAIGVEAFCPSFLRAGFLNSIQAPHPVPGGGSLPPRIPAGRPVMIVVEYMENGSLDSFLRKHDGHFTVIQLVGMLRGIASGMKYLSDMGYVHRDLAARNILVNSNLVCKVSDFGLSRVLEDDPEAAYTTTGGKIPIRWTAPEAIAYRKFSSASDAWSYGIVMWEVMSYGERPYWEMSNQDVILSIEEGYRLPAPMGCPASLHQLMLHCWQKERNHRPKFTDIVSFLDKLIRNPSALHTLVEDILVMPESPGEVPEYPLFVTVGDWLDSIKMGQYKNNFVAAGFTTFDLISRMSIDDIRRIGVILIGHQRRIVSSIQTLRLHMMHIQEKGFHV

EPHA3, construct: aa571-end, human (from UniProt P29320)
relative phosphorylation
Settings | at +1 | at +2 | at +3 | at +4 | at +5 | at -1 | at -2 | at -3 | at -4 | at -5
A fixed | 1.63 | 0.63 | 0.711 | 0.794 | 1.05 | 0.536 | 1.11 | 0.827 | 1.03 | 0.924
D fixed | 1.1 | 1.73 | 0.574 | 1.03 | 1.04 | 2.68 | 1.16 | 1.07 | 1.06 | 0.949
E fixed | 1.89 | 1.71 | 0.544 | 1.06 | 0.941 | 1.19 | 1.04 | 1.17 | 1.05 | 0.848
F fixed | 0.91 | 1.44 | 1.4 | 1.16 | 1.42 | 0.997 | 0.863 | 1.32 | 1.3 | 1.15
G fixed | 0.902 | 0.424 | 0.526 | 1.14 | 0.981 | 0.389 | 1.04 | 0.853 | 1.01 | 1.02
H fixed | 0.53 | 0.717 | 0.69 | 0.998 | 0.756 | 0.534 | 0.804 | 0.959 | 0.859 | 0.996
I fixed | 1.18 | 1.02 | 2.34 | 0.801 | 0.925 | 1.83 | 0.939 | 1.11 | 0.974 | 0.999
K fixed | 0.407 | 0.47 | 0.403 | 0.685 | 0.653 | 0.382 | 0.899 | 0.674 | 0.918 | 1.01
L fixed | 0.982 | 0.908 | 1.62 | 0.754 | 1.19 | 1.75 | 1.13 | 0.995 | 1.34 | 1.11
M fixed | 1.17 | 0.915 | 0.989 | 0.951 | 0.885 | 0.827 | 0.747 | 0.976 | 0.837 | 0.891
N fixed | 0.556 | 1.05 | 0.514 | 0.809 | 0.774 | 2.18 | 0.942 | 1.06 | 0.817 | 1.03
P fixed | 0.353 | 0.567 | 1.42 | 1.25 | 1.52 | 0.44 | 1.15 | 1.02 | 1.06 | 1.09
Q fixed | 1.28 | 0.789 | 0.775 | 0.997 | 0.8 | 0.567 | 1.25 | 0.894 | 1.09 | 1.02
R fixed | 0.473 | 0.601 | 0.505 | 0.809 | 0.648 | 0.411 | 0.842 | 0.806 | 0.847 | 0.982
S fixed | 0.811 | 0.685 | 0.63 | 0.877 | 1.06 | 0.525 | 1.28 | 0.902 | 0.785 | 0.836
T fixed | 0.694 | 0.742 | 0.589 | 0.866 | 0.841 | 0.867 | 0.805 | 0.885 | 0.653 | 0.774
V fixed | 1.59 | 0.905 | 1.85 | 0.779 | 1.04 | 1.04 | 1.04 | 0.994 | 0.903 | 0.836
W fixed | 1.54 | 2.7 | 1.92 | 2.23 | 1.47 | 0.849 | 0.966 | 1.48 | 1.48 | 1.53
pThr fixed | 1.53 | 2.12 | 0.736 | 1.05 | 0.946 | 1.88 | 1.04 | 0.915 | 0.851 | 0.854
pTyr fixed | 1.9 | 7.49 | 1.44 | 1.89 | 1.07 | 2.88 | 1.1 | 1.22 | 1.13 | 1.15

EPHA6, construct: aa683-end, human (from UniProt Q9UF33)
relative phosphorylation
Settings | at +1 | at +2 | at +3 | at +4 | at +5 | at -1 | at -2 | at -3 | at -4 | at -5
A fixed | 1.7 | 0.891 | 0.971 | 1.03 | 0.87 | 0.838 | 1.39 | 0.94 | 1.57 | 1.47
D fixed | 0.944 | 1.3 | 0.585 | 0.688 | 0.91 | 2.67 | 1.15 | 1.18 | 0.754 | 0.894
E fixed | 2.3 | 1.3 | 0.541 | 0.818 | 0.966 | 1.73 | 1.22 | 1.36 | 1.03 | 0.788
F fixed | 0.862 | 1.19 | 0.94 | 1.06 | 1.12 | 0.701 | 0.668 | 1.09 | 0.859 | 0.811
G fixed | 0.699 | 0.438 | 0.61 | 1.12 | 0.966 | 0.427 | 0.758 | 0.853 | 1.27 | 1.22
H fixed | 0.72 | 1.13 | 1.03 | 1.15 | 1.24 | 0.733 | 0.886 | 1.01 | 0.973 | 1.21
I fixed | 1.02 | 0.984 | 1.93 | 1 | 0.811 | 1.92 | 0.966 | 1.5 | 1.3 | 0.707
K fixed | 0.62 | 1.03 | 0.901 | 1.06 | 1.04 | 0.593 | 1.17 | 0.842 | 0.944 | 1.15
L fixed | 0.792 | 0.964 | 1.56 | 0.86 | 0.92 | 1.29 | 1.07 | 0.873 | 0.847 | 0.703
M fixed | 1.08 | 0.917 | 1.26 | 0.988 | 0.955 | 0.737 | 0.85 | 0.943 | 0.881 | 0.802
N fixed | 0.649 | 1.04 | 0.522 | 0.74 | 0.947 | 1.61 | 0.922 | 0.818 | 0.754 | 0.982
P fixed | 0.352 | 0.594 | 1.05 | 1.29 | 1.03 | 0.504 | 1.2 | 0.876 | 1.15 | 1.03
Q fixed | 1.31 | 0.779 | 0.716 | 0.882 | 0.942 | 0.535 | 1.02 | 0.735 | 0.942 | 0.998
R fixed | 0.916 | 1.3 | 1.06 | 1.27 | 1.09 | 0.63 | 1.3 | 1.01 | 1.05 | 1.45
S fixed | 0.808 | 0.748 | 0.684 | 0.848 | 0.993 | 0.535 | 1.21 | 0.951 | 0.826 | 0.949
T fixed | 0.678 | 0.703 | 0.673 | 0.794 | 0.979 | 0.798 | 0.84 | 0.893 | 0.755 | 0.91
V fixed | 1.54 | 1.06 | 1.64 | 1.08 | 0.85 | 1.2 | 0.781 | 1.11 | 1.2 | 0.954
W fixed | 1 | 1.64 | 1.32 | 1.32 | 1.36 | 0.528 | 0.605 | 1.01 | 0.894 | 0.981
pThr fixed | 1.37 | 1.63 | 0.624 | 0.561 | 0.816 | 2.9 | 1.03 | 0.842 | 0.799 | 0.686
pTyr fixed | 1.48 | 3.8 | 0.659 | 0.576 | 1.01 | 2.12 | 0.946 | 0.911 | 0.73 | 0.677

EPHA7, construct: aa579-end, human (from UniProt Q15375)
relative phosphorylation
Settings | at +1 | at +2 | at +3 | at +4 | at +5 | at -1 | at -2 | at -3 | at -4 | at -5
A fixed | 1.63 | 0.698 | 0.618 | 0.79 | 1.04 | 0.492 | 1.21 | 0.817 | 1.18 | 1.03
D fixed | 0.804 | 1.37 | 0.44 | 0.936 | 0.981 | 2.01 | 1.07 | 1.12 | 1.17 | 1.05
E fixed | 3 | 1.79 | 0.398 | 1.01 | 1.04 | 1.39 | 1.31 | 1.43 | 1.14 | 0.918
F fixed | 0.661 | 1.31 | 1.7 | 1.08 | 1.13 | 0.92 | 0.747 | 1.48 | 1.07 | 1.03
G fixed | 0.476 | 0.39 | 0.464 | 1.21 | 1.12 | 0.251 | 1.15 | 0.953 | 1.34 | 1.19
H fixed | 0.495 | 0.916 | 0.855 | 1.29 | 0.953 | 0.625 | 0.779 | 1.06 | 0.852 | 0.96
I fixed | 1.65 | 1.04 | 2.77 | 0.729 | 0.818 | 2.61 | 0.88 | 1.08 | 0.939 | 1.04
K fixed | 0.271 | 0.522 | 0.329 | 0.822 | 0.809 | 0.3 | 0.926 | 0.591 | 0.875 | 0.993
L fixed | 0.905 | 0.894 | 1.97 | 0.718 | 1.03 | 2.03 | 0.845 | 0.944 | 1.11 | 0.96
M fixed | 1.41 | 0.935 | 1.15 | 1.03 | 0.988 | 0.872 | 0.663 | 0.913 | 0.883 | 0.921
N fixed | 0.429 | 1.21 | 0.479 | 0.793 | 0.815 | 1.99 | 0.985 | 0.995 | 0.772 | 1.1
P fixed | 0.204 | 0.609 | 0.93 | 1.4 | 1.64 | 0.346 | 1.51 | 1.15 | 1.33 | 1.11
Q fixed | 1.08 | 0.742 | 0.692 | 0.778 | 0.782 | 0.439 | 1.09 | 0.706 | 1.04 | 0.94
R fixed | 0.358 | 0.924 | 0.455 | 1.03 | 0.859 | 0.489 | 1.05 | 0.759 | 0.945 | 1.1
S fixed | 0.725 | 0.769 | 0.537 | 0.853 | 0.994 | 0.457 | 1.26 | 0.877 | 0.784 | 0.834
T fixed | 0.803 | 0.994 | 0.615 | 0.904 | 1.01 | 1.1 | 0.921 | 0.895 | 0.673 | 0.851
V fixed | 2.03 | 1.04 | 2.05 | 0.733 | 0.797 | 1.1 | 0.936 | 0.876 | 0.822 | 0.831
W fixed | 1.06 | 1.84 | 1.55 | 1.89 | 1.19 | 0.569 | 0.67 | 1.36 | 1.07 | 1.15
pThr fixed | 1.8 | 2.11 | 0.552 | 0.851 | 0.651 | 2.07 | 0.877 | 0.772 | 0.877 | 0.834
pTyr fixed | 1.98 | 6.7 | 0.866 | 1.14 | 0.865 | 1.94 | 0.896 | 1.02 | 1.08 | 1.12
